# From paper PMC6720645, “Structural and Functional Properties of the Capsid Protein of Dengue and Related Flavivirus” (International Journal of Molecular Sciences, 2019)
# Biological target: the molecule itself
# Assay: time-resolved fluorescence anisotropy
protein,measurement,value
"Dengue virus serotype 2 capsid protein (natural protein, also called DENV C; C protein) MNNQRKKARNTPFNMLKRERNRVSTVQQLTKRFSLGMLQGRGPLKLFMALVAFLRFLTIPPTAGILKRWGTIKKSKAINVLRGFRKEIGRMLNILNRRRR",binding result,binds
